Ends that are not written are not given here. * marks the point of attachment. C16 diacid = O=C(O)CCCCCCCCCCCCCCC(=O)*
T1: human GIP receptor (human, UniProt P48546 22-466)
T1 sequence (looked up): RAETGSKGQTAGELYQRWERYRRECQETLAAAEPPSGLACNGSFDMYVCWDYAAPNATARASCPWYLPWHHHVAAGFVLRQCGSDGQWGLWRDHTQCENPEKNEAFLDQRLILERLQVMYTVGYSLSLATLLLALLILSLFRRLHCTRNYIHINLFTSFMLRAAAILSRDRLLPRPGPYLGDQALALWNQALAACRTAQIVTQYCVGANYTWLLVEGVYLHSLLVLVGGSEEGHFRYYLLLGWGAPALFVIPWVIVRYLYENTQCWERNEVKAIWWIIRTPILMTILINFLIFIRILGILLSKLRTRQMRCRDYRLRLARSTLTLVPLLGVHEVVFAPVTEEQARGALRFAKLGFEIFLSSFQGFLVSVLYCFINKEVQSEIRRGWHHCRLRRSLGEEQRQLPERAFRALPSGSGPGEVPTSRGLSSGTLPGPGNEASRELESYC

B1: AT182 [hGIP(5-30)NH2[F22K]-C16diacid/22] (peptide)
peptide: TFISDYSIAMDKIHQQDK(C16 diacid)VNWLLAQK-NH2
modifications: N-terminus assumed
SMILES: CC[C@H](C)[C@H](NC(=O)[C@H](CO)NC(=O)[C@H](Cc1ccc(O)cc1)NC(=O)[C@H](CC(=O)O)NC(=O)[C@H](CO)NC(=O)[C@@H](NC(=O)[C@H](Cc1ccccc1)NC(=O)[C@@H](N)[C@@H](C)O)[C@@H](C)CC)C(=O)N[C@@H](C)C(=O)N[C@@H](CCSC)C(=O)N[C@@H](CC(=O)O)C(=O)N[C@@H](CCCCN)C(=O)N[C@H](C(=O)N[C@@H](Cc1c[nH]cn1)C(=O)N[C@@H](CCC(N)=O)C(=O)N[C@@H](CCC(N)=O)C(=O)N[C@@H](CC(=O)O)C(=O)N[C@@H](CCCCNC(=O)CCCCCCCCCCCCCCC(=O)O)C(=O)N[C@H](C(=O)N[C@@H](CC(N)=O)C(=O)N[C@@H](Cc1c[nH]c2ccccc12)C(=O)N[C@@H](CC(C)C)C(=O)N[C@@H](CC(C)C)C(=O)N[C@@H](C)C(=O)N[C@@H](CCC(N)=O)C(=O)N[C@@H](CCCCN)C(N)=O)C(C)C)[C@@H](C)CC
B2: AT183 [hGIP(5-30)NH2[V23K]-C16diacid/23] (peptide)
peptide: TFISDYSIAMDKIHQQDFK(C16 diacid)NWLLAQK-NH2
modifications: N-terminus assumed
SMILES: CC[C@H](C)[C@H](NC(=O)[C@H](CO)NC(=O)[C@H](Cc1ccc(O)cc1)NC(=O)[C@H](CC(=O)O)NC(=O)[C@H](CO)NC(=O)[C@@H](NC(=O)[C@H](Cc1ccccc1)NC(=O)[C@@H](N)[C@@H](C)O)[C@@H](C)CC)C(=O)N[C@@H](C)C(=O)N[C@@H](CCSC)C(=O)N[C@@H](CC(=O)O)C(=O)N[C@@H](CCCCN)C(=O)N[C@H](C(=O)N[C@@H](Cc1c[nH]cn1)C(=O)N[C@@H](CCC(N)=O)C(=O)N[C@@H](CCC(N)=O)C(=O)N[C@@H](CC(=O)O)C(=O)N[C@@H](Cc1ccccc1)C(=O)N[C@@H](CCCCNC(=O)CCCCCCCCCCCCCCC(=O)O)C(=O)N[C@@H](CC(N)=O)C(=O)N[C@@H](Cc1c[nH]c2ccccc12)C(=O)N[C@@H](CC(C)C)C(=O)N[C@@H](CC(C)C)C(=O)N[C@@H](C)C(=O)N[C@@H](CCC(N)=O)C(=O)N[C@@H](CCCCN)C(N)=O)[C@@H](C)CC
B3: AT184 [hGIP(5-30)NH2[N24K]-C16diacid/24] (peptide)
peptide: TFISDYSIAMDKIHQQDFVK(C16 diacid)WLLAQK-NH2
modifications: N-terminus assumed
SMILES: CC[C@H](C)[C@H](NC(=O)[C@H](CO)NC(=O)[C@H](Cc1ccc(O)cc1)NC(=O)[C@H](CC(=O)O)NC(=O)[C@H](CO)NC(=O)[C@@H](NC(=O)[C@H](Cc1ccccc1)NC(=O)[C@@H](N)[C@@H](C)O)[C@@H](C)CC)C(=O)N[C@@H](C)C(=O)N[C@@H](CCSC)C(=O)N[C@@H](CC(=O)O)C(=O)N[C@@H](CCCCN)C(=O)N[C@H](C(=O)N[C@@H](Cc1c[nH]cn1)C(=O)N[C@@H](CCC(N)=O)C(=O)N[C@@H](CCC(N)=O)C(=O)N[C@@H](CC(=O)O)C(=O)N[C@@H](Cc1ccccc1)C(=O)N[C@H](C(=O)N[C@@H](CCCCNC(=O)CCCCCCCCCCCCCCC(=O)O)C(=O)N[C@@H](Cc1c[nH]c2ccccc12)C(=O)N[C@@H](CC(C)C)C(=O)N[C@@H](CC(C)C)C(=O)N[C@@H](C)C(=O)N[C@@H](CCC(N)=O)C(=O)N[C@@H](CCCCN)C(N)=O)C(C)C)[C@@H](C)CC
B4: AT185 [hGIP(5-30)NH2[W25K]-C16diacid/25] (peptide)
peptide: TFISDYSIAMDKIHQQDFVNK(C16 diacid)LLAQK-NH2
modifications: N-terminus assumed
SMILES: CC[C@H](C)[C@H](NC(=O)[C@H](CO)NC(=O)[C@H](Cc1ccc(O)cc1)NC(=O)[C@H](CC(=O)O)NC(=O)[C@H](CO)NC(=O)[C@@H](NC(=O)[C@H](Cc1ccccc1)NC(=O)[C@@H](N)[C@@H](C)O)[C@@H](C)CC)C(=O)N[C@@H](C)C(=O)N[C@@H](CCSC)C(=O)N[C@@H](CC(=O)O)C(=O)N[C@@H](CCCCN)C(=O)N[C@H](C(=O)N[C@@H](Cc1c[nH]cn1)C(=O)N[C@@H](CCC(N)=O)C(=O)N[C@@H](CCC(N)=O)C(=O)N[C@@H](CC(=O)O)C(=O)N[C@@H](Cc1ccccc1)C(=O)N[C@H](C(=O)N[C@@H](CC(N)=O)C(=O)N[C@@H](CCCCNC(=O)CCCCCCCCCCCCCCC(=O)O)C(=O)N[C@@H](CC(C)C)C(=O)N[C@@H](CC(C)C)C(=O)N[C@@H](C)C(=O)N[C@@H](CCC(N)=O)C(=O)N[C@@H](CCCCN)C(N)=O)C(C)C)[C@@H](C)CC

Assays:
[1] = target: T1, human GIP receptor; test: cell-based or functional assay
[2] = target: T1, human GIP receptor; test: 125I-hGIP competition binding, COS-7/hGIPR, 2% HSA;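 further: nonspecific binding defined as radioligand binding to untransfected cells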
Method: (§1) After incubation, the cells were washed twice in ice-cold binding buffer (+/−2% HSA) and lysed using 200 mM NaOH with 1% SDS for 30 min. Nonspecific binding was determined as the binding of radioactive ligand to untransfected cells.

[3] = target: T1, human GIP receptor; test: 125I-hGIP competition binding, COS-7/hGIPR, 0.1% casein;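 further: nonspecific binding defined as radioligand binding measured on untransfected cells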
Method: as §1

[4] = target: T1, human GIP receptor; test: 125I-hGIP competition binding, COS-7 cells expressing hGIPR;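 further: nonspecific binding taken as radioligand bound by untransfected cells, binding buffer with or without 2% HSA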
Method: as §1

[5] = target: T1, human GIP receptor; test: IC50 with 2% HSA over IC50 with 0.1% casein, 125I-hGIP competition, COS-7/hGIPR
Method: as §1

Row | Binder | cAMP agonism [1] [nM] | cAMP agonism, EC50 (log) [1] [log M] | cAMP agonism, Emax [1] | cAMP antagonism [1] [nM] | cAMP antagonism, log [1] [log M] | IC50 [2] [nM] | logIC50 [2] [log M] | IC50 [3] [nM] | logIC50 [3] [log M] | IC50 [4] [nM] | log IC50 [4] [log M] | Fold change HSA (2%)/Casein (0.1%) [5] [fold]
1 | B1 | 634 | -6 | 13 | 634 | -6.2 | 141 | -6.9 | 47.9 | -7.3 | 962 | -6 | 3
2 | B2 | – | – | 0 | 1770 | -5.8 | 1700 | -5.8 | 955 | -6 | 7130 | -5.1 | 1.8
3 | B3 | – | – | 0 | 91 | -7 | 11200 | -5 | 7080 | -5.2 | 247 | -6.6 | 1.6
4 | B4 | 44 | -7 | 18 | 44 | -7.4 | 1150 | -5.9 | 246 | -6.6 | 87 | -7.1 | 4.7

From patent publication US20200087373A1 (UNIVERSITY OF COPENHAGEN, published 2020)
